Patent US11278600B2, “Human alpha-galactosidase variants” (Codexis, Inc., priority 2014, dated 2022)
Substitutions are numbered along the chain they refer to.

B1: 439 (protein)
chain: LDNGLARTPTMGWLHWERFMCNLDCQEEPDSCISEKLFMEMAERMVSEGWKDAGYEYLCIDDCWMAPQRDSEGRLQADPQRFPHGIRQLANYVHSKGLKLGIYADVGNKTCAGFPGSFGYYDIDAQTFADWGVDLLKFDGCYCDSLENLADGYKHMSLALNRTGRSIVYSCEWPLYMWPFQKPNYTEIRQYCNHWRNFADIDDSWKSIKSILDWTSRNQERIVDVAGPGGWNDPDMLVIGNFGLSWDQQVTQMALWAIMAAPLFMSNDLRAISPQAKALLQDKDVIAINQDPLGKQGYQLRKGDNFEVWERPLSGDAWAVAIINRQEIGGPRSYTIPVASLGKGVACNPACFITQLLPVKRQLGFYNWTSRLKSHINPTGTVLLQLENTMQMSLKDLL
modifications: Synthetic Polypeptide sequence of Variant No. 439 of mature Human GLA
B2: 445 (protein)
chain: B1 chain with L263F, A271H
modifications: Synthetic Polypeptide sequence of Variant No. 445 of mature Human GLA
B3: 448 (protein)
chain: B1 chain with R270Q, A271H
modifications: Synthetic Polypeptide sequence of Variant No. 448 of mature Human GLA
B4: 440 (protein)
chain: B1 chain with L263C, A271H
modifications: Synthetic Polypeptide sequence of Variant No. 440 of mature Human GLA
B5: 444 (protein)
chain: B1 chain with M259W, A271H
modifications: Synthetic Polypeptide sequence of Variant No. 444 of mature Human GLA
B6: 442 (protein)
chain: B1 chain with L255A, A271H
modifications: Synthetic Polypeptide sequence of Variant No. 442 of mature Human GLA
B7: 447 (protein)
chain: B1 chain with L263W, A271H
modifications: Synthetic Polypeptide sequence of Variant No. 447 of mature Human GLA
B8: 449 (protein)
chain: B1 chain with L255T, A271H
modifications: Synthetic Polypeptide sequence of Variant No. 449 of mature Human GLA
B9: 441 (protein)
chain: B1 chain with A271V
modifications: Synthetic Polypeptide sequence of Variant No. 441 of mature Human GLA
B10: 366 (protein)
chain: B1 chain with S47V, A271H
modifications: Synthetic Polypeptide sequence of Variant No. 366 of mature Human GLA
B11: 446 (protein)
chain: B1 chain with M259A, A271H
modifications: Synthetic Polypeptide sequence of Variant No. 446 of mature Human GLA
B12: 450 (protein)
chain: B1 chain with I258M, A271H
modifications: Synthetic Polypeptide sequence of Variant No. 450 of mature Human GLA
B13: 443 (protein)
chain: B1 chain with K206A, L255S, A271H
modifications: Synthetic Polypeptide sequence of Variant No. 443 of mature Human GLA

Test: HTP-analysis of yeast culture supernatants, no challenge (MUGal hydrolysis)
Assay type: biochemical
Conditions: activity of the variant/activity of Rd4BB (SEQ ID NO: 15)
In short: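 GLA variants were expressed in INVSc1 yeast grown in SD-Ura broth with glucose at 30° C., and culture supernatants were collected after 66-84 h. Supernatant was mixed with McIlvaine buffer pH 4.8 and MUGal (2 mM stock) in 50 mM citrate, 200 mM KCl, pH 4.6, incubated at 37° C. for 30-180 minutes, then quenched with sodium carbonate.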

Row | Molecule | Relative Activity of GLA Variants After No Challenge (NC)
1 | B1 | + (0.5 to 1.5 relative activity over Rd4BB (SEQ ID NO: 15))
2 | B2 | + (0.5 to 1.5 relative activity over Rd4BB (SEQ ID NO: 15))
3 | B3 | + (0.5 to 1.5 relative activity over Rd4BB (SEQ ID NO: 15))
4 | B4 | + (0.5 to 1.5 relative activity over Rd4BB (SEQ ID NO: 15))
5 | B5 | + (0.5 to 1.5 relative activity over Rd4BB (SEQ ID NO: 15))
6 | B6 | + (0.5 to 1.5 relative activity over Rd4BB (SEQ ID NO: 15))
7 | B7 | + (0.5 to 1.5 relative activity over Rd4BB (SEQ ID NO: 15))
8 | B8 | + (0.5 to 1.5 relative activity over Rd4BB (SEQ ID NO: 15))
9 | B9 | + (0.5 to 1.5 relative activity over Rd4BB (SEQ ID NO: 15))
10 | B10 | + (0.5 to 1.5 relative activity over Rd4BB (SEQ ID NO: 15))
11 | B11 | + (0.5 to 1.5 relative activity over Rd4BB (SEQ ID NO: 15))
12 | B12 | + (0.5 to 1.5 relative activity over Rd4BB (SEQ ID NO: 15))
13 | B13 | + (0.5 to 1.5 relative activity over Rd4BB (SEQ ID NO: 15))

Test: HTP-analysis of supernatants pretreated with acid (MUGal hydrolysis)
Assay type: biochemical
Conditions: activity of the variant/activity of Rd4BB (SEQ ID NO: 15); challenge at pH 3.7
In short: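 MUGal hydrolysis was tracked by fluorescence (Ex 355 nm, Em 448 nm) after a 30-180 min reaction at 37° C. in pH 4.8 McIlvaine/citrate buffer, stopped with 1 M sodium carbonate. Beforehand, yeast (INVSc1) culture supernatants carrying GLA variants were held 1-3 h at 37° C. in acidic McIlvaine buffer, pH 3.3-4.3.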

Row | Molecule | Relative Activity of GLA Variants After Challenge at pH 3.7
14 | B1 | + (0.5 to 1.5 relative activity over Rd4BB (SEQ ID NO: 15))
15 | B2 | + (0.5 to 1.5 relative activity over Rd4BB (SEQ ID NO: 15))
16 | B3 | − (<0.5 relative activity over Rd4BB (SEQ ID NO: 15))
17 | B4 | + (0.5 to 1.5 relative activity over Rd4BB (SEQ ID NO: 15))
18 | B5 | − (<0.5 relative activity over Rd4BB (SEQ ID NO: 15))
19 | B6 | + (0.5 to 1.5 relative activity over Rd4BB (SEQ ID NO: 15))
20 | B7 | − (<0.5 relative activity over Rd4BB (SEQ ID NO: 15))
21 | B8 | ++ (>1.5 to 2.5 relative activity over Rd4BB (SEQ ID NO: 15))
22 | B9 | − (<0.5 relative activity over Rd4BB (SEQ ID NO: 15))
23 | B10 | + (0.5 to 1.5 relative activity over Rd4BB (SEQ ID NO: 15))
24 | B11 | − (<0.5 relative activity over Rd4BB (SEQ ID NO: 15))
25 | B12 | ++ (>1.5 to 2.5 relative activity over Rd4BB (SEQ ID NO: 15))
26 | B13 | +++ (>2.5 relative activity over Rd4BB (SEQ ID NO: 15))

Test: HTP-analysis of supernatants pretreated with base (MUGal hydrolysis)
Assay type: biochemical
Conditions: activity of the variant/activity of Rd4BB (SEQ ID NO: 15); challenge at pH 9.65
In short: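 GLA variants were secreted by transformed INVSc1 yeast grown 66-84 h at 30° C. Supernatants were exposed to neutral-to-basic buffers (pH 7.0-9.7) at 37° C for 1-18 h, then assayed with MUGal in acidic citrate/McIlvaine buffer, with fluorescence read after quenching.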

Row | Molecule | Relative Activity of GLA Variants After Challenge at pH 9.65
27 | B1 | + (0.5 to 1.5 relative activity over Rd4BB (SEQ ID NO: 15))
28 | B2 | − (<0.5 relative activity over Rd4BB (SEQ ID NO: 15))
29 | B3 | − (<0.5 relative activity over Rd4BB (SEQ ID NO: 15))
30 | B4 | − (<0.5 relative activity over Rd4BB (SEQ ID NO: 15))
31 | B5 | + (0.5 to 1.5 relative activity over Rd4BB (SEQ ID NO: 15))
32 | B6 | − (<0.5 relative activity over Rd4BB (SEQ ID NO: 15))
33 | B7 | − (<0.5 relative activity over Rd4BB (SEQ ID NO: 15))
34 | B8 | − (<0.5 relative activity over Rd4BB (SEQ ID NO: 15))
35 | B9 | + (0.5 to 1.5 relative activity over Rd4BB (SEQ ID NO: 15))
36 | B10 | + (0.5 to 1.5 relative activity over Rd4BB (SEQ ID NO: 15))
37 | B11 | − (<0.5 relative activity over Rd4BB (SEQ ID NO: 15))
38 | B12 | − (<0.5 relative activity over Rd4BB (SEQ ID NO: 15))
39 | B13 | − (<0.5 relative activity over Rd4BB (SEQ ID NO: 15))
